Experimental data: US20110059095A1 (Regeneron, published 2011)

B1: H4H588N (antibody, human IgG4, V domains shown)
VH: EVQLLESGGGLVQPGGSLRLSCAASGFTFSSYAMTWVRQAPGKGLYWVSAISGGRGSAYYADSVKGRFTISRDNSKNTLYLQMNSLRAEDTAVYYCAKEGDSGYDLAYWGRGTLVTVSS
VL: DIQMTQSPSSLSASVGDRVTITCRARQGISNNLAWLQQKPGKAPKSLIYAASSLQSGIPSKFSGSGSGTYFTLTISSLQPEDFATYYCQQYKSSPLTFGGGTKVEIK
notes: also called H2M588N variable regions
B2: H4H581P (antibody, human IgG4, V domains shown)
VH: QVQLVESGGGVVQPGRSLRLSCVASGFTFSRYGIHWVRQAPGKGLEWVIVISYDGINKYYADSVKGRFTISRDNSKNTVYLQMNSLRAEDTAVYYCAKGDFWSGYFDYWGQGTLVTVSS
VL: DIVMTQTPLSSPVTLGQPASISCRSSQSLVHSDGNTYLSWLHQRPGQPPRLLIYKISNRFSGVPDRFSGSGAGTDFTLQISRVEAEDVGIYYCMQATQFPTFGGGTKVEIK
notes: also called mAb H4H581P; H1H581P variable regions
B3: H4H583P (antibody, human IgG4, V domains shown)
VH: QVQLVESGGGVVQPGMSLRLSCTASGFTFRRYGMHWVRQAPGKGLEWVAVIWYDGSNKYYADSVKGRFTITRDNSKNTLYLQMNSLRAEDTAIYFCASEITIGDWFDPRGQGTLVTVSS
VL: AIQMTQSPSSLSASVGDRVTITCRASQGIRNDLGWFQQKPGKVPKLLIYAASTLHSGVPSRFSGSGFGTDFTLTISSLQPEDFATYYCLQDFNYPLTFGGGTKVEIK
notes: also called H1H583P variable regions

Tests used:
full length mouse PAR-2 = molecular target: T1, full length mouse PAR-2 (mouse, UniProt P55086 26-399); assay: MSD cell binding
T1 construct: also called 293/D9/mPAR-2rec cells
T1 chain: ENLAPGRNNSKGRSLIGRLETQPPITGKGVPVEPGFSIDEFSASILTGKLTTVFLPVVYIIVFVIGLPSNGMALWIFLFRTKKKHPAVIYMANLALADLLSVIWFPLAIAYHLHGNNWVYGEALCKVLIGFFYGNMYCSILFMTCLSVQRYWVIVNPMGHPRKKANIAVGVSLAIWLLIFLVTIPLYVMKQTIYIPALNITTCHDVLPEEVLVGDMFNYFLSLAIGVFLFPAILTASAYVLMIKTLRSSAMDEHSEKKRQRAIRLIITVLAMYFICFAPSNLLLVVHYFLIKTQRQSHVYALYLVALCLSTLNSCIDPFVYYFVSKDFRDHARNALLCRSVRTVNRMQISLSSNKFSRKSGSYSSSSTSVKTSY
Outline: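 Antibodies, two-fold dilutions from 100 nM to 0.098 nM, bound for 1 h at room temperature to HEK293/D9 cells stably expressing human or mouse PAR-2, detected by sulfo-tagged anti-human IgG electrochemiluminescence. Parental 293/D9 signal was subtracted; EC50 and Bmax came from sigmoidal dose-response fits.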

[1] = molecular target: T2, C-terminal biotinylated human PAR-2 peptide SEQ ID NO:877 (Gly-40 to Ala) (human, not fully specified; C-terminal biotin (K-B)); assay: BLI Exp1
T2 construct: alanine-scan mutant
T2 peptide: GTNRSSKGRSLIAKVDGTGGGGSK
Procedure: (§1) In order to more particularly identify the amino acids of PAR-2 with which the PAR-2 antibodies interact, an alanine scanning study was carried out using peptides comprising the activating PAR-2 protease cleavage site.
(§2) The ability of each peptide mutant to bind to PAR-2 antibodies was measured using biolayer interferometry (Octet Red; ForteBio). Each peptide (2.5 μg/ml) was captured on streptavidin coated biosensor tips (Octet SA sensor) for 10 seconds. To measure binding and dissociation between each peptide and PAR-2 antibody, the peptide-coated biosensors were contacted with 200 nM solutions of PAR-2 antibodies for 5 minutes (binding) followed by transfer to buffer with no antibody for 10 min (dissociation). […] The results are expressed as percent binding and percent T_{1/2} relative to WT peptide (Tables 24-28).

[2] = molecular target: T3, C-terminal biotinylated human PAR-2 peptide SEQ ID NO:881 (Gly-44 to Ala) (human, not fully specified; C-terminal biotin (K-B)); assay: BLI Exp1
T3 construct: alanine-scan mutant
T3 peptide: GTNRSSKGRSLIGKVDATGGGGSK
Procedure: as §1, §2

[3] = molecular target: T4, C-terminal biotinylated human PAR-2 peptide SEQ ID NO:882 (Thr-45 to Ala) (human, not fully specified; C-terminal biotin (K-B)); assay: BLI Exp1
T4 construct: alanine-scan mutant
T4 peptide: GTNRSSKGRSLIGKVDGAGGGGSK
Procedure: as §1, §2

[4] = molecular target: T5, C-terminal biotinylated human PAR-2 peptide SEQ ID NO:873 (Arg-36 to Ala) (human, not fully specified; C-terminal biotin (K-B)); assay: BLI Exp1
T5 construct: alanine-scan mutant
T5 peptide: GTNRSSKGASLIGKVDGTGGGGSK
Procedure: as §1, §2

[5] = molecular target: T6, C-terminal biotinylated human PAR-2 peptide SEQ ID NO:872 (Gly-35 to Ala) (human, not fully specified; C-terminal biotin (K-B)); assay: BLI Exp1
T6 construct: alanine-scan mutant
T6 peptide: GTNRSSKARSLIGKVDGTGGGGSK
Procedure: as §1, §2

[6] = molecular target: T7, C-terminal biotinylated human PAR-2 peptide SEQ ID NO:880 (Asp-43 to Ala) (human, not fully specified; C-terminal biotin (K-B)); assay: BLI Exp1
T7 construct: alanine-scan mutant
T7 peptide: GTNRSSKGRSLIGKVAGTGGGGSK
Procedure: as §1, §2

[7] = molecular target: T8, C-terminal biotinylated human PAR-2 peptide SEQ ID NO:871 (wild-type) (human, not fully specified; C-terminal biotin (K-B)); assay: BLI Exp1
T8 construct: also called WT peptide
T8 peptide: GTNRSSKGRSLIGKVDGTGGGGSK
Procedure: as §1, §2

[8] = molecular target: T9, C-terminal biotinylated human PAR-2 peptide SEQ ID NO:874 (Ser-37 to Ala) (human, not fully specified; C-terminal biotin (K-B)); assay: BLI Exp1
T9 construct: alanine-scan mutant
T9 peptide: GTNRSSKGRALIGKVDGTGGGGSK
Procedure: as §1, §2

[9] = molecular target: T10, C-terminal biotinylated human PAR-2 peptide SEQ ID NO:879 (Val-42 to Ala) (human, not fully specified; C-terminal biotin (K-B)); assay: BLI Exp1
T10 construct: alanine-scan mutant
T10 peptide: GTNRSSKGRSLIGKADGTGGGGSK
Procedure: as §1, §2

[10] = molecular target: T11, C-terminal biotinylated human PAR-2 peptide SEQ ID NO:878 (Lys-41 to Ala) (human, not fully specified; C-terminal biotin (K-B)); assay: BLI Exp1
T11 construct: alanine-scan mutant
T11 peptide: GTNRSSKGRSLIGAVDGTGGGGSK
Procedure: as §1, §2

[11] = molecular target: T12, C-terminal biotinylated human PAR-2 peptide SEQ ID NO:875 (Leu-38 to Ala) (human, not fully specified; C-terminal biotin (K-B)); assay: BLI Exp1
T12 construct: alanine-scan mutant
T12 peptide: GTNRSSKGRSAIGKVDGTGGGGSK
Procedure: as §1, §2

Binder	% Rel Binding [1] [%]	% Rel T1/2 [1] [%]	% Rel Binding [2] [%]	% Rel T1/2 [2] [%]	% Rel Binding [3] [%]	% Rel T1/2 [3] [%]	% Rel Binding [4] [%]	% Rel T1/2 [4] [%]	% Rel Binding [5] [%]	% Rel T1/2 [5] [%]	% Rel Binding [6] [%]	% Rel T1/2 [6] [%]	% Rel Binding [7] [%]	% Rel T1/2 [7] [%]	% Rel Binding [8] [%]	% Rel T1/2 [8] [%]	% Rel Binding [9] [%]	% Rel T1/2 [9] [%]	% Rel Binding [10] [%]	% Rel T1/2 [10] [%]	also measured
B1	30	1	81	1	125	94	208	100	122	100	35	4	100	100	119	100	74	1	217	108	binding result (full length mouse PAR-2): no binding (tested: 100 nM to 0.098 nM antibody); % Rel Binding [11]: 127%; % Rel T1/2 [11]: 100%
B2	101	33	67	117	65	129	87	122	78	118	18	36	100	100	45	7	36	1	113	63	% Rel Binding [11]: 9%; % Rel T1/2 [11]: 0.4%
B3																					Bmax (full length mouse PAR-2): 7220 MSD Unit; EC50 (full length mouse PAR-2): 9.28 nM
